Publication PMC3409205, “Crystal Structure of TNF-α-Inducing Protein from Helicobacter Pylori in Active Form Reveals the Intrinsic Molecular Flexibility for Unique DNA-Binding” (PLoS ONE, 2012)

Key:
TipαN25 (wild type) [1] = biological target: T1, TipαN25 (wild type) (Helicobacter pylori 26695, UniProt O25318 25-192); experiment: ITC; pH 5.0; n=1.17; ITC: 50 mM citric acid/Na citrate pH 5.0, 150 mM NaCl, 25 °C; SPR: 50 mM Hepes pH 7.0, 150 mM NaCl, 0.005% Tween20, 25 °C; conditions: protein: recombinant; tags: C-terminal LE-6xHis; chain copies: 2; called ssDNA by authors; self-complementary repeat
TipαN25 (wild type) [2] = biological target: T1, TipαN25 (wild type); experiment: ITC; pH 5.0; n about 1; ITC: 50 mM citric acid/Na citrate pH 5.0, 150 mM NaCl, 25 °C; SPR: 50 mM Hepes pH 7.0, 150 mM NaCl, 0.005% Tween20, 25 °C; conditions: protein: recombinant; tags: C-terminal LE-6xHis; chain copies: 2
[3] = biological target: the molecule itself; experiment: SEC; analytical gel filtration, Superdex 75 10/300 GL, no reducing agent, pH 4.0 and pH 7.0, dimeric protein concentration 2 mg/ml (also 0.05 and 0.25 mg/ml, Fig. S1)
TipαN25 H60A [4] = biological target: T2, TipαN25 H60A (Helicobacter pylori 26695, UniProt O25318 25-192, H60A); experiment: SPR; pH 7.0; ka 2.9 M-1 s-1, kd 1.75E-04 s-1; ITC: 50 mM citric acid/Na citrate pH 5.0, 150 mM NaCl, 25 °C; SPR: 50 mM Hepes pH 7.0, 150 mM NaCl, 0.005% Tween20, 25 °C; conditions: protein: recombinant; tags: C-terminal LE-6xHis; chain copies: 2; label: 5' biotin; called ssDNA by authors; self-complementary repeat
TipαN25 H60A [5] = biological target: T2, TipαN25 H60A; experiment: ITC; pH 5.0; n=0.5; ITC: 50 mM citric acid/Na citrate pH 5.0, 150 mM NaCl, 25 °C; SPR: 50 mM Hepes pH 7.0, 150 mM NaCl, 0.005% Tween20, 25 °C; conditions: protein: recombinant; tags: C-terminal LE-6xHis; chain copies: 2; called ssDNA by authors; self-complementary repeat
TipαN25 (wild type) [6] = biological target: T1, TipαN25 (wild type); experiment: ITC; pH 5.0; n=0.925 dimer per DNA; ITC: 50 mM citric acid/Na citrate pH 5.0, 150 mM NaCl, 25 °C; SPR: 50 mM Hepes pH 7.0, 150 mM NaCl, 0.005% Tween20, 25 °C; conditions: protein: recombinant; tags: C-terminal LE-6xHis; chain copies: 2; called ssDNA by authors; self-complementary repeat
TipαN25 K65A/K66A = TipαN25 K65A/K66A (Helicobacter pylori 26695, UniProt O25318 25-192, K65A;K66A); experiment: ITC; pH 5.0; n=0.921; ITC: 50 mM citric acid/Na citrate pH 5.0, 150 mM NaCl, 25 °C; SPR: 50 mM Hepes pH 7.0, 150 mM NaCl, 0.005% Tween20, 25 °C; conditions: protein: recombinant; tags: C-terminal LE-6xHis; chain copies: 2; called ssDNA by authors; self-complementary repeat
TipαN25 R77A/R81A = TipαN25 R77A/R81A (Helicobacter pylori 26695, UniProt O25318 25-192, R77A;R81A); experiment: ITC; pH 5.0; n=0.491; ITC: 50 mM citric acid/Na citrate pH 5.0, 150 mM NaCl, 25 °C; SPR: 50 mM Hepes pH 7.0, 150 mM NaCl, 0.005% Tween20, 25 °C; conditions: protein: recombinant; tags: C-terminal LE-6xHis; chain copies: 2; called ssDNA by authors; self-complementary repeat
TipαN25 R77A = TipαN25 R77A (Helicobacter pylori 26695, UniProt O25318 25-192, R77A); experiment: ITC; pH 5.0; n=0.477; ITC: 50 mM citric acid/Na citrate pH 5.0, 150 mM NaCl, 25 °C; SPR: 50 mM Hepes pH 7.0, 150 mM NaCl, 0.005% Tween20, 25 °C; conditions: protein: recombinant; tags: C-terminal LE-6xHis; chain copies: 2; called ssDNA by authors; self-complementary repeat
TipαN25 K104A = TipαN25 K104A (Helicobacter pylori 26695, UniProt O25318 25-192, K104A); experiment: ITC; pH 5.0; n=0.87; ITC: 50 mM citric acid/Na citrate pH 5.0, 150 mM NaCl, 25 °C; SPR: 50 mM Hepes pH 7.0, 150 mM NaCl, 0.005% Tween20, 25 °C; conditions: protein: recombinant; tags: C-terminal LE-6xHis; chain copies: 2; called ssDNA by authors; self-complementary repeat
TipαN25 (wild type) [7] = biological target: T1, TipαN25 (wild type); experiment: ITC; pH 5.0; n=1.47; ITC: 50 mM citric acid/Na citrate pH 5.0, 150 mM NaCl, 25 °C; SPR: 50 mM Hepes pH 7.0, 150 mM NaCl, 0.005% Tween20, 25 °C; conditions: protein: recombinant; tags: C-terminal LE-6xHis; chain copies: 2; called ssDNA by authors; self-complementary repeat

B1: (dGdC)20, 40 nt (ssDNA)
DNA: GCGCGCGCGCGCGCGCGCGCGCGCGCGCGCGCGCGCGCGC
B1 showed a Ka (TipαN25 (wild type) [1]) of 937000 M⁻¹.

B2: 20 bp dsDNA (dsDNA)
DNA 1: GCCTTGCCGCCGCCCTTGCC
DNA 2: GGCAAGGGCGGCGGCAAGGC
With B2 the Ka (TipαN25 (wild type) [2]) was 1.02e+06 M⁻¹.

B3: TipαN^25 (N-terminal-truncated TNF-α-inducing protein Tipα starting from residue Cys25) (domain or fragment)
chain: CTCPNTSQRNSFLQDVPYWMLQNRSEYITQGVDSSHIVDGKKTEEIEKIATKRATIRVAQNIVHKLKEAYLSKTNRIKQKITNEMFIQMTQPIYDSLMNVDRLGIYINPNNEEVFALVRARGFDKDALSEGLHKMSLDNQAVSILVAKVEEIFKDSVNYGDVKVPIAM
notes: Tipα (TNF-α-inducing protein), Helicobacter pylori strain 26695, gene 0596, 192 amino acids; residues 25-192 (Δ1–24), amplified from genomic DNA into pET22b(+); The entry is the single chain (protomer); A SeMet form (E. coli B834) was used only for phasing; also called Tipα (Δ1–24); native TipαN^25; source: E. coli BL21 (DE3), purified (Ni-NTA, Hitrap SP cation exchange, Superdex 75)
B3 was tested, and the “stoichiometry N” value [3] was 2.

B4: 5'-biotin (dGdC)10, 20 nt (ssDNA)
DNA: GCGCGCGCGCGCGCGCGCGC
B4 was tested, and the Kd (TipαN25 H60A [4]) was 60.3 µM.

B5: (dGdC)10, 20 nt (ssDNA)
DNA: GCGCGCGCGCGCGCGCGCGC
Work on B5 yielded a Ka (TipαN25 H60A [5]) of 28200 M⁻¹, a Ka (TipαN25 (wild type) [6]) of 1.04e+06 M⁻¹ and a Ka (TipαN25 K65A/K66A) of 261000 M⁻¹. It also gave a Ka (TipαN25 R77A/R81A) of 140000 M⁻¹, a Ka (TipαN25 R77A) of 479000 M⁻¹ and a Ka (TipαN25 K104A) of 631000 M⁻¹.

B6: (dGdC)30, 60 nt (ssDNA)
DNA: GCGCGCGCGCGCGCGCGCGCGCGCGCGCGCGCGCGCGCGCGCGCGCGCGCGCGCGCGCGC
In the case of B6, the Ka (TipαN25 (wild type) [7]) is reported as 1.03e+06 M⁻¹.
